Test results published in patent US5739291A, “Glutamate receptor antibodies” (The Salk Institute For Biological Studies, priority 1995, dated 1998).

Biological target: T1, homomeric GluR6 receptor (Rattus norvegicus, UniProt P42260, I567V/Q621R/Y571C)
T1 construct: A 4559 base pair cDNA encoding a protein of 884 amino acid residues was engineered from RC11 and RC27; expressed in transfected cells; host or cells: Xenopus oocytes injected with in vitro transcribed GluR6 RNA
Experiment: Homomeric GluR6 ion channel in Xenopus oocytes injected with in vitro transcribed RNA
Assay type: cell-based

T1 sequence (P42260 with tags, fused parts or gaps I567V/Y571C/Q621R): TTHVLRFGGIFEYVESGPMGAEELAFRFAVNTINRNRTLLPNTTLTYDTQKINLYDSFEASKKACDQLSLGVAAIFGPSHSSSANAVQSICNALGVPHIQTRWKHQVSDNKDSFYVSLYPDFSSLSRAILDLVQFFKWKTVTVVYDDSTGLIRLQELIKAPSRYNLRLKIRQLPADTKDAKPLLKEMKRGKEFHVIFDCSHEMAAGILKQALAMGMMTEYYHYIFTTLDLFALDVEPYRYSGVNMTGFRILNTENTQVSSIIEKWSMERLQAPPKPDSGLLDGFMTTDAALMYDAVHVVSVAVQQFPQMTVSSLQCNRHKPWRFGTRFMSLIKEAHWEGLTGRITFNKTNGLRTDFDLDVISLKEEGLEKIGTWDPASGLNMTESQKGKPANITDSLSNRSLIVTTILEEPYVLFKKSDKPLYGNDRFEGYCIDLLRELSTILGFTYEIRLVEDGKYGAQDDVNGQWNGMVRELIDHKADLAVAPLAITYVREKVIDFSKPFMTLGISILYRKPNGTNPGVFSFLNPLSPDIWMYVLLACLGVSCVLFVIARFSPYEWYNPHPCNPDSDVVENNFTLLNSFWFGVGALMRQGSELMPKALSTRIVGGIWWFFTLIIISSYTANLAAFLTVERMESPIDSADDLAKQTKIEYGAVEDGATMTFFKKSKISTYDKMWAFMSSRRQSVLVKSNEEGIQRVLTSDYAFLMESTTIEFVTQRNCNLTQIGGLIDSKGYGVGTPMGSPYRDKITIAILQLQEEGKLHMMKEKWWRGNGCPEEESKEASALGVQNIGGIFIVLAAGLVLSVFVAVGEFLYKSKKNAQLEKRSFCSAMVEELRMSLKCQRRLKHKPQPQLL

B1: concanavalin A (protein)
chain: STHETNALHFMFNQFSKDQKDLILQGDATTGTDGNLELTRVSSNGSPQGSSVGRALFYAPVHIWESSAVVASFEATFTFLIKSPDSHPADGIAFFISNIDSSIPSGSTGRLLGLFPDANVIRNSTTIDFNAAYNADTIVAVELDTYPNTDIGDPSYPHIGIDIKSVRSKKTAKWNMQNGKVGTAHIIYNSVDKRLSAVVSYPNADSATVSYDVDLDNVLPEWVRVGLSASTGLYKETNTILSWSFTSKLKSN
notes: concanavalin A, used to decrease receptor desensitization
**Q.** With B1 as the molecule, how does the effect on desensitization (10 μM for 5 minutes) read?
**A.** The effect on desensitization was “efficiently decreases desensitization”.

**Q.** What about the “increase of current elicited by kainate and glutamate compared to peak current before treatment” value (equimolar agonist concentrations) of the same molecule?
**A.** The value was 75 to 150 fold.
